T1: hVISTA-Fc (R&D systems. Cat. No. 7126-B7) (human, UniProt Q9H7M9 33-194)
T1 construct: Bought antigen; also called human VISTA-Fc; VISTA-FC Human
T1 sequence: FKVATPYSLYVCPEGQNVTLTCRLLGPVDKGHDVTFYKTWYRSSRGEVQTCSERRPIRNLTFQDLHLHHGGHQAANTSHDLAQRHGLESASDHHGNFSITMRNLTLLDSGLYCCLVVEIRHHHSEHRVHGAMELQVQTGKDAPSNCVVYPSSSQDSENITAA

T2: mouse VISTA-Fc (mouse, UniProt Q9D659 33-191)
T2 construct: extracellular domain; also called mVISTA-Fc; VISTA-FC Mouse; not shown: Fc portion
T2 sequence (looked up): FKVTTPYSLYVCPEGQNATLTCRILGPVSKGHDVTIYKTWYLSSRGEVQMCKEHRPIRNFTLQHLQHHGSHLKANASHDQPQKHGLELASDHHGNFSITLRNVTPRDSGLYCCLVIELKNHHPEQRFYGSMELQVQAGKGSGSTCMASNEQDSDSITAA


Tests used:
[1] = target: T1, hVISTA-Fc (R&D systems. Cat. No. …); assay: Octet (BLI), antibody immobilised on biosensor, antigen in solution
Description: The binding ability of the screened antibody to the antigen was measured using an Octet (ForteBio). For this purpose, the antibody was immobilized on a biosensor, various concentrations of antigen were added to a 96-well plate, and then the binding ability was measured.

mouse VISTA-Fc [2] = target: T2, mouse VISTA-Fc; assay: ELISA, plate coated with 1 ug/ml mouse VISTA-Fc, antibody at 1 ug/ml, anti-human IgG (kappa)-peroxidase
Description: ELISA assay: 1 μg/ml of Ag (human VISTA-Fc or mouse VISTA-Fc) was plated at 100 μl/well onto a 96-well plate and incubated at 4° C. overnight. The next day, the plated Ag was washed 3 times with 0.05% PBST and 200 μl of 2% BSA blocking buffer was added thereto, followed by incubation at 25° C. for 2 hours. After blocking was completed, the resulting product was washed 3 times with 0.05% PBST. 1 μg/ml of each antibody was injected at 100 μl/well and incubated at 25° C. for 1 hour. After incubation was completed, the resulting product was washed 3 times with 0.05% PBST and 100 μl of goat anti-human IgG (kappa)-conjugated peroxidase (1:2000, Bethyl Lab #A80-115P) was added thereto, followed by incubation at 25° C. for […]. After incubation, the resulting product was washed 3 times with 0.05% PBST, 100 μl of TMB (BD TMB substrate reagent set #555214) was added, color was developed for 3 to 5 minutes, 50 μl of a stop solution was added thereto, and then an assay was performed using an ELISA reader.

[3] = target: T1, hVISTA-Fc (R&D systems. Cat. No. …); assay: monoclonal scFv phage ELISA, plate coated with 1 ug/ml VISTA-Fc, anti-M13-HRP
Description: (§1) After the panning process was completed, the final round cell stock was diluted to form 200 to 500 colonies, spread on a CM agar plate, and then incubated overnight at 37° C. The next day, when the colonies grew, 200 μl of 2xYT medium (CM 34 μg/ml+1% glucose) was plated onto a 96-well deep plate, the colony was inserted into each well one by one and the plate was then incubated overnight at 37° C. and 3,000 rpm. The next day, 200 μl of 2×YT medium (CM 34 μg/ml+1% glucose) was plated onto a new 96-well dip plate, and […] of cells grown the day before were injected into each well and grown at 37° C. and 3,000 rpm for 1 hour and 10 minutes. The remaining cells were stored at −70° C. in 100 pμl of 50% glycerol. When the cells grew, 1 μl of a helper phage was mixed with 19 μl of 2×YT medium, and 20 μl of the resulting mixture was injected into each well and incubated for 30 minutes at 37° C. After incubation, centrifugation was performed at 3,000 rpm for 10 minutes. The supernatant was discarded and 200 μl of 2×YT medium (CM 34 μg/ml+Kan. 70 μg/ml+1 mM IPTG+5 mM MgCl₂) was added to the residue, followed by incubation in MegaGrow at 30° C. and 3,000 rpm overnight.
(§2) 1 μg/ml of Ag (hVISTA-Fc, mVISTA-Fc) was plated at 100 μl/well onto a 96-well immunoplate and then incubated overnight at 4° C. The next day, the cells grown the day before were centrifuged at 3,000 rpm for 10 minutes and stored at 4° C. The plated Ag was washed 3 times with 0.05% PBST, and then 200 μl of 2% BSA blocking buffer was added thereto, followed by incubation at 25° C. for 2 hours. After blocking was completed, the result was washed 3 times with 0.05% PBST. […] After phage binding was completed, the reaction product was washed three times with 0.05% PBST, 100 μl of HRP-conjugated mouse anti-M13 antibody (1:3000, #GE 27-9421-01) was added thereto, and reaction was allowed to proceed at 25° C. for 1 hour. After the reaction was completed, the resulting product was washed 3 times with 0.05% PBST, 100 μl of TMB (#BD TMB substrate reagent set 555214) was added thereto, color was developed for 3 to 5 minutes, 50 μl of a stop solution was added thereto, and then an assay was performed using an ELISA reader.

mouse VISTA-Fc [4] = target: T2, mouse VISTA-Fc; assay: as above
Description: as §1, §2

Binder | Kd [1] [nM] | koff [1] [s⁻¹] | kon [1] [M⁻¹ s⁻¹] | binding result (mouse VISTA-Fc [2]) | OD [3] [OD] | OD (mouse VISTA-Fc [4]) [OD]
anti-VISTA antibody 1A12 (IgG form) (antibody, V domains shown) VH: QMQLVESGGGLVEPGRSLRLSCTTSGFSFHDYTMYWVRQVPGKGLEWVSLISWDGTITFYADPVRGRFTISRDNSKNSLYLQMNSLRAEDTAVYYCAKEDRYDYYSGAFDIWGQGTVVTVSS VL: QSALTQPRSVSGSPGQSVTISCTGTSSDVGGYDYVSWYQQHPGKAPKLILNDVNKRPSGVPDRFSGSKSGNTASLTISGLQPDDEADYYCSSFAGSNTLRVFGGGTKLTVLG | 0.546 | 2.74e-05 | 50200 | no binding (tested: 1 ug/ml) | – | –
2C12 monoclonal scFv phage (scFv, V domains shown) VH: QVQLVESGAEVKKPGASVKVSCKASGYIFTDYYMHWVRQAPGQGLEWMGVINPYDGRTSFAQKFQGRLTVTRDTSTSTAYMDLSGLRSEDTAVYYCAKQMGIWDYDAFDIWGQGTMVTVSS VL: QFVLTQPSSVSGAPGQRVIISCTGSSSNIGAGYDVHWYQQLPGTAPKVLIYGNSDRPSGVPDRFSASKSATSASLAITGLQAEDEADYYCVAWDDSLKAYVFGTGTKVTVLG | – | – | – | – | 2.11 | 2.03
anti-VISTA antibody 3C5 (IgG form) (antibody, V domains shown) VH: QVQLVQSGAEVKKPGASVKLSCKASGYTFSSYWMHWVRQAPGQRLEWMGEINPGNGHTNYNEKFKSRVTITVDKSASTAYMELSSLRSEDTAVYYCAKDIAYYDFWSGDAFDLWGQGTMVTVSS VL: SYELTQPLSVSVSPGQTASITCSGDKLGNKYASWYQQKPGQSPVLVIYQDNKRPSGIPERFSGSNSGNTATLTISGTQATDEADYYCQTWDRSTGVFGTGTKVTVLG | 13.9 | 0.00367 | 264000 | no binding (tested: 1 ug/ml) | – | –

Source: patent US20200407449A1 (PHARMABCINE, published 2020)
